# Source: IntAct's records for PubMed 25350732
# B1: Probable peptidoglycan glycosyltransferase FtsW (Caulobacter crescentus), B8H092 (parent)
# chain: MASNATHAFARTDRTALGLWWWTTDRWLLGATALLVTLGMLLSFASSPAAAQRIGIDDQFHFALRMCFFATASSVLMLITSMLSPRDIRRAAFFIYLGAIAVMIALPFIGHNAKGATRWLQFAGFTLQPSEFMKPALIVLVSWMFAEGQKGEGVPGVSIAFLLYFIAVALLLIQPDVGQTVLITIAFGAAFWMAGVPISWIMGLGGVALAGLGSTYFLFDHVHARVQKFLSPDQADTHQITRAAEAIRAGGLFGRGPGEGVMKRHVPDLHTDFIYSVAAEEYGLIFSWSLIGLFAFVVVRGLYKAMKLNDPFEQVAAAGLFVLVGQQALINIAVNLNMIPTKGMTLPFISYGGSSMLAMGLTLGMALALLRKRPGAYGASGEFGFGRADA
# partner: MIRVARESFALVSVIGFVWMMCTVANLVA
# Variants of: B1
# Conditions: with sida_cauvn sidA
row,Variant,effect of a mutation on the interaction
1,MASNATHAFARTDRTALGLWWWTTDRWLLGKTALLVTLGMLLSFASSPAAAQRIGIDDQFHFALRMCFFATASSVLMLITSMLSPRDIRRAAFFIYLGAIAVMIALPFIGHNAKGATRWLQFAGFTLQPSEFMKPALIVLVSWMFAEGQKGEGVPGVSIAFLLYFIAVALLLIQPDVGQTVLITIAFGAAFWMAGVPISWIMGLGGVALAGLGSTYFLFDHVHARVQKFLSPDQADTHQITRAAEAIRAGGLFGRGPGEGVMKRHVPDLHTDFIYSVAAEEYGLIFSWSLIGLFAFVVVRGLYKAMKLNDPFEQVAAAGLFVLVGQQALINIAVNLNMIPTKGMTLPFISYGGSSMLAMGLTLGMALALLRKRPGAYGASGEFGFGRADA [A31K],disrupting interaction strength
